Laboratory results from patent US20100189719A1 (published 2010).

T1: human placenta growth factor (PlGF-2) (human, UniProt P49763-3 19-170, limits assumed)
T1 construct: also called human PlGF-2
T1 sequence (looked up): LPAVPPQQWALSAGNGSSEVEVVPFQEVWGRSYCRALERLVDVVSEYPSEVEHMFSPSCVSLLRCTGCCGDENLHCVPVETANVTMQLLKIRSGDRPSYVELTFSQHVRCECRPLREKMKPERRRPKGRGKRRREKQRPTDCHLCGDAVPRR

T2: mouse placenta growth factor (PlGF-2) (mouse, UniProt P49764 19-158, limits assumed)
T2 construct: also called murine PlGF-2
T2 sequence (looked up): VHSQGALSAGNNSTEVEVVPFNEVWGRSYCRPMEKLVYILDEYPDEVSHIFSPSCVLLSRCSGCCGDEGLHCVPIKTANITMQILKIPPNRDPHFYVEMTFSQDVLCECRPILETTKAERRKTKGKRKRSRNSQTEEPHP

T3: murine VEGF-D (mVEGF-D) (mouse, UniProt P97946 98-206, limits assumed)
T3 sequence (looked up): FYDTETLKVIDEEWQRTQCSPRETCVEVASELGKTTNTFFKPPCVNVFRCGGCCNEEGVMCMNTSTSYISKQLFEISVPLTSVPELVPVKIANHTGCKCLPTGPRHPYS

T4: human VEGF-B (human, UniProt P49765-2 22-188, limits assumed)
T4 sequence (looked up): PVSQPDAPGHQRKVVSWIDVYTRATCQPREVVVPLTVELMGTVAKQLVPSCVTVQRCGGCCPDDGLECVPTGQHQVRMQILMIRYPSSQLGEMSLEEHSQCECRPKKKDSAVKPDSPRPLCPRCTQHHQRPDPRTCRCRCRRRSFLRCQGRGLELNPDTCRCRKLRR

B1: second domain of Flt-1 (Flt-1D2) (receptor, UniProt P17948 129-229, looked up)
chain: SDTGRPFVEMYSEIPEIIHMTEGRELVIPCRVTSPNITVTLKKFPLDTLIPDGKRIIWDSRKGFIISNATYKEIGLLTCEATVNGHLYKTNYLTHRQTNTI
notes: domain: second domain of Flt-1 (Flt-1D2)
B2: murine VEGF (mVEGF) (ligand, mouse, UniProt Q00731-2 27-190, looked up)
chain: APTTEGEQKSHEVIKFMDVYQRSYCRPIETLVDIFQEYPDEIEYIFKPSCVPLMRCAGCCNDEALECVPTSESNITMQIMRIKPHQSQHIGEMSFLQHSRCECRPKKDRTKPENHCEPCSERRKHLFVQDPQTCKCSCKNTDSRCKARQLELNERTCRCDKPRR
notes: also called mouse VEGF
B3: hVEGF displayed on phage (hVEGF1-109, wild type) (ligand, human, UniProt P15692 207-315, looked up)
chain: APMAEGGGQNHHEVVKFMDVYQRSYCHPIETLVDIFQEYPDEIEYIFKPSCVPLMRCGGCCNDEGLECVPTEESNITMQIMRIKPHQGQHIGEMSFLQHNKCECRPKKD
notes: Phage fusion partner not described; also called hVEGF displaying phage; hVEGF-phage
B4: G6 Fab (Fab, V domains shown)
VH: EVQLVESGGGLVQPGGSLRLSCAASGFTISDYWIHWVRQAPGKGLEWVAGITPAGGYTYYADSVKGRFTISADTSKNTAYLQMNSLRAEDTAVYYCARFVFFLPYAMDYWGQGTLVTVSS
VL: DIQMTQSPSSLSASVGDRVTITCRASQDVSTAVAWYQQKPGKAPKLLIYSASFLYSGVPSRFSGSGSGTDFTLTISSLQPEDFATYYCQQSYTTPPTFGQGTKVEIKR
notes: Purified Fab from E. coli in most assays; also called Fab G6; FabG6

Key:
[1] = target: B2; experiment: BIAcore or solution binding ELISA, Fab
[2] = target: B2; experiment: phage-blocking assay: receptor fragment at increasing concentration competes with phage clones for mVEGF-coated wells
[3] = target: T5, full extracellular domain (ECD) of KDR (UniProt P35968 20-764, limits assumed); experiment: as above
T5 construct: extracellular domain; also called KDR ECD
T5 sequence (P35968 20-764 limits assumed): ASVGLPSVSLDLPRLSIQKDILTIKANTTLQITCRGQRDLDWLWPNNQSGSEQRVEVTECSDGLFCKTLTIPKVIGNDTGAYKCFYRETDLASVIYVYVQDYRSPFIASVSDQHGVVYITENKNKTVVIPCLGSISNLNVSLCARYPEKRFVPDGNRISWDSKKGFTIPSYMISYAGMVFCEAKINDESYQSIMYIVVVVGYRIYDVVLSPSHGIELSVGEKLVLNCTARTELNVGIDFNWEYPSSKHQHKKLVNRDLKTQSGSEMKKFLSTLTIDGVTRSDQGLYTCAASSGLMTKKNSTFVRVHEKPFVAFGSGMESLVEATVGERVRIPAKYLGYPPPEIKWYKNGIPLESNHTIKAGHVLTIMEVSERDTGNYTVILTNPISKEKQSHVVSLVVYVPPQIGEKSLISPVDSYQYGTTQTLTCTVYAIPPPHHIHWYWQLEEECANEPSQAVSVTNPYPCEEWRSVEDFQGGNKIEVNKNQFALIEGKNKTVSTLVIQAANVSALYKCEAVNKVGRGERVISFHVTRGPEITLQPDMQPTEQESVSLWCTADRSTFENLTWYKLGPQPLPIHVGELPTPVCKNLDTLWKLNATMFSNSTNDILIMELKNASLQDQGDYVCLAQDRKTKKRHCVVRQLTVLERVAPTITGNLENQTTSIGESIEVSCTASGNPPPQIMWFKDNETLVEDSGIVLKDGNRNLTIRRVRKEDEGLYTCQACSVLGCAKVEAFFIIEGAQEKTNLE

[4] = target: T6, Flt-1 ECD fragment (Ig domain1-5) (Flt-1D1-5) (UniProt P17948 27-553, limits assumed); experiment: phage ELISA with wild type hVEGF phage
T6 construct: domain: Flt-1 ECD fragment (Ig domain1-5); also called Flt-1 receptor
T6 sequence (P17948 27-553 limits assumed): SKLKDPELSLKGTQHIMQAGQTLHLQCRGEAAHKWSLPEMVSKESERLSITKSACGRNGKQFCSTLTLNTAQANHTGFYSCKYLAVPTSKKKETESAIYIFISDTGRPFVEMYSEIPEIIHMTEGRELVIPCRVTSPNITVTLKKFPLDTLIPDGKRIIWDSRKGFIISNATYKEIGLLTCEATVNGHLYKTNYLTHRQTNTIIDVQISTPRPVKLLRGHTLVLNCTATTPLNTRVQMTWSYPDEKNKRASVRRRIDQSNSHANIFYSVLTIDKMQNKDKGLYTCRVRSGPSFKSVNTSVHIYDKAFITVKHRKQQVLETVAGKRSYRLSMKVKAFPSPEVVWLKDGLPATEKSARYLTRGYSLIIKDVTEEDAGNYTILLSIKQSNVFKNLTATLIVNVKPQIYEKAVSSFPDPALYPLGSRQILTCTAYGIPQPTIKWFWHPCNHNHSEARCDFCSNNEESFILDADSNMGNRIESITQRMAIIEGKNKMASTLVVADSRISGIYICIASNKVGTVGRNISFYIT

[5] = target: T1, human placenta growth factor (PlGF-2); experiment: direct ELISA on coated homolog (2 ug/ml) with increasing G6 Fab
[6] = target: T2, mouse placenta growth factor (PlGF-2); experiment: as above
[7] = target: T3, murine VEGF-D (mVEGF-D); experiment: as above
[8] = target: T4, human VEGF-B; experiment: as above

Y0317 Fab
affinity [1]: 350 nM

B1
binding result [2]: binds

B2
binding result [3]: binds

B3
binding result [4]: binds

B4
binding result [5]: no binding | binding result [6]: no binding | binding result [7]: no binding | binding result [8]: no binding
